In the DeepSol protein solubility set:

Assay: soluble on expression in E. coli; label from the status in PepcDB or PDB records

Row | Sequence | soluble on expression in E. coli
1 | MGSDKIHHHHHHMSLLTVKDLGQSFIDKTLYEDANFVLNKEDHMGVTGQNGVGKSTLIKILTGEILPDNGQVKWQNKIDVGYLDQYAKLAPGVTIRGFLRTAFDDLFQKEKELNELYTKYAETSDEDLLEKAGKVQTYLEENNFYDIDTEIEQVASGLGLADLGYDHDVSKLSGGQRSKIILGKLLLQNPDVLVLDEPTNYLDVSHIDWLVDYLNNFEGAFIVVSHDYDFLGRITNCIIDIDFGTITRYTGTLKQAMRQKAANRETYLKAYANQQRKIAKTEAYIRKNKAGTRAKSAKSREKQLARMDVLTPPKNNRRAKFEFPYVATASNLLLQTQDLVIGYDQALVKSAFNFSVGGDEKVAITGFNGIGKTTLLKTLLGQLKPIYGSYDLSVTAKLAYFKQDLTWPNNNMTPLQYLQEEFERKKPKELRQALARMGLTAQQAMSPLKELSGGEQEKVKLAKMQFEPANLLFLDEPTNHLDNDTKDALRKAIINFSGGVIIVSHERDFFRGDWIDKTIDIETMN | not soluble
2 | MSLDNLNLIVSLKDGGLLHFKRDEELGEINVFNFQEQGTLIPFLGFFGSGKQKDVVLDGVSSNSIVDALQIGGSGVVITLSVNKVLKLWNLDGHQNLSSLTIASDDNTWLPTIPSKYLKSYDQEDGKTIITLFINTKSGDSSKSMFVFKSFELESSNLHDLSDLSFQPELPNSLLFSSDVFYHESNFQNTIWFIQDYEVVGFGTSQLKYYILWKSNTSSILVEYTINPVNGAILSEGHHHHHH | not soluble
3 | MSLSTMLVAEDLSAVGGISLSSALPVLTAMQYDVAALPTSLLSTHTSGYGTPAVVDLSTWLPQVFAHWTRAQLHFDQALIGYVGSVALCQQITTYLEQQTLSLLVVDPVLGDLGQLYQGFDQDYVAAMRQLIQQADVILPNTTEAALLTGAPYQVTPDLEVILPALQAQLKTGAHAVITDVQRADQIGCAWLDEAGHVQYCGARRLPGHYNGTGDTLAAVIAGLLGRGYPLAPTLARANQWLNMAVAETIAQNRTDDRQGEGHHHHHH | not soluble
4 | MNDRSSRRRTMKDDETFEISIPFDEAPHLDPQIFYSLSPSRRNFEEPPEAASSALALMNSVKTQLHMALERNSWLQKRIEDLEEERDFLRCQLDKFISSARMEAEDHCRMKPGPRRMEGDSRGGAGGEASDPESAASSLSGASEEGSASERRRQKQKGGASRRRFGKPKARERQRVKDADGVLCRYKKILGTFQKLKSMSRAFEHHRVDRNTVALTTPIAELLIVAPEKLAEVGEFDPSKERLLEYSRRCFLALDDETLKKVQALKKSKLLLPITYRFKR | soluble
5 | MVVGWHRPTRLHIDTQAITENVQKECQRLPEGTALFAVVKANGYGHGAVESAKAAKKGGATGFCVALLDEAIELREAGVQDPILILSVVDLAYVPLLIQYDLSVTVATQEWLEAALQQLTPESNTPLRVHLKVDTGMGRIGFLTPEETKQAVRFVQSHKEFLWEGIFTHFSTADEIDTSYFEKQAGRFKAVLAVLEELPRYVHVSNSATALWHPDVPGNMIRYGVAMYGLNPSGNKLAPSYALKPALRLTSELIHVKRLAAGEGIGYGETYVTEAEEWIGTVPIGYADGWLRHLQGFTVLVNGKRCEIVGRVCMDQCMIRLAEEVPVGPVVTLVGKDGNEENTLQMVAEKLETIHYEVACTFSQRIPREYN | soluble
6 | GPGSMSTALFVQATFFNTDNKSTDNKLMTTAAVSHNQSSQDNIMVVNLQKELQKRLEEDAGVKTLYITMGGEPRFNRALFENKSMALFVGDSMSIHHFTDDYGRITRRLLILYPMTFSRREEIPKQQILKKVEKAANQPEDNCGIEVVDLVELQKKHVYLEGQAAACYSYNGEFVYMALSGRSSEQVLSIICAPENLNIPNEKRFVFTAVLPHRSKENGRVIGEDVIPYTSLVGWCGKGICAWGLEFLRFPSEKDQEAFYEHLENNYSKVINLDESELRAFCGNAREVAIAHGNGERRVLCISHQALNALRPFKRQMLEDWYGLGNILPFYADVLERRAGRSVGSLVSVPVIHGEVLPLPGELGVIEAAKVDIKDGGC | soluble
7 | MGSDKIHHHHHHMNRTAVGVDIAKSVFQVHYVDPETGEIVNKPIKRAKFLEFFANRARCLIGMEACGGAQHWARQLMKMGHEIRLMPAEFVKAFNIRNKNDAADARAIWLAVQQPGKPVAVKTEMQQAMLALHRMRRQLVTFRTMQINGLRGLPTEYGEVMGRGRAALDKAIPEVLRRVAERLPAVVIDTLREQWNGLTKLDEQVACIERRMREWKKQDKAVQAISEIPGVGLLTATAAVAMMGDAKAFSSGREFAAWAGLVPKQTGSGGKVNLHGISRRGDTYLRTLLIHGARSVLTHAKDPGPWVEQMKKRRPLNVVVVALANKIARTIWAGTFLRYSYNFP | not soluble
8 | MGSDKIHHHHHHMTSKLAAVSHIEKIALGLRDQAHAVIKNILMMSDIPTQELQHAMKQLSHQGRVALHFHPDRIDNRGLTVVQGLLRDGIYKSQFETHISNGQLSPELGGPRDHWENQLFGNSYSGIKSRPKYGALDLGLCPLGPAPRFGSCYFLTHSQVLSRCTFSYMDSYRLPKEKGTLSCFDAILAALLSESFERCYALGRQPFKPRDIMAHMACEAKSSVAARFELPGLGNLDHYIEAQIHGDVSLADDIGYLVADPSFKGTETEEYFNQLCSDYQINLHWHNGLTLACDKVPTDFRGAAMPVLAKQIAIDEVIDAKTVGAEAARLQKQPSSWSERGSQAKKTQELKLLWHVLVRFGKPREDNFDNH | not soluble
9 | MGSDKIHHHHHHMINQAKIEHSGLVDDFIGLYQALNKDNLHLLAEVYDDNICFIDPMHQVNGLNALTQYFAKLYQNIGYIHFEIKEVLQDDTQASLFWQMQYRHPKLNKGEVVRVDGMSQLKFHQRIYFHRDYFDLGQMLYEHLPCMGGLIRLLKDRAAK | not soluble
10 | FGDFNYNTTFTATTNKNKIIQLARDVLNPVTNTLIDLTDIQVGRFRLREGGEIGTVYANEWLKRDGDNYIDYQPGQALTTETTSPYKLGSVNPKWNLGWQHGFSYKGFNLNLLFTARIGGIAISKTQAMLDRYGVSEASADARDAGGVSLGYFKVDPKTYYDAVSNLDAYYTYSATNVRLQEARLTYTFPNKWFKGTVNNLSLSVYGTNLWMIYNKAPYDPELTASTGTFGQGYDYFMLPSQSTYGLSLKFGF | not soluble
11 | MGSDKIHHHHHHMATLYLIEQGAEIGCDGERIVVRRAGEIIGSVPLVKVDDIVIFGNIGISTPAIKRLLDRSIEVTFMTVDGSYQGRLVGQVTAHVALRQAQYACAADSDRTLRLAQSFVEGKLRNQRALLQRFSRNRATPPAEALAAADDLDAYIKRVRRTTRLSALLGVEGSATARYFAGLRSLIEPEWDFRSRQRRPPPDPVNLLLSFGYTLLTHKTLGAVQAAGFDPYLGFLHSLDYGRPSLALDLMEEFRPLLIDSLVVRVCNDGRLRLEHFQPGDEARPVIITDEGKRAFLTAFEERMRTEATHPEGADSGPGKVTYQRCIALQARRLARVIRGQQERYEPFTAR | not soluble
12 | RKEIQPIRELAKAATLMSSRLDVPEVSERGSNELKAAVRAFNKMNRRIDSHIKDREMLFSAISHDLKTPIACLKLRAEMLDDDADRERFIRLSNDLDLMVKGALQCIKETDIHEEIEPINFTQLIQHISSNIADAPDTIRIHGEIRTHFAGK | not soluble
13 | MSLCRVLAVKPSSYYDWMNRNISDQQIHRNQCELLVKAAHTETRERYGVDRLQAHLRQQGHYVSQYMIRSIKEEYGIKCRRHKRFKMTTNSNHNKLVYLNVLDQQFDAKHPNESWVSDITYIWTNEGWLYLAGVKDLYTKELVGYAINKRMTADLVCRALNMAIKNKRPRQGLIVHSDRGSQYCSHAYHKIIEQHQFTGSMSAKGNCFDNAPIESFWGVLKNELVYHQDYKTRFEAISDITQYIELEYNEERLAKHCFAATQDKSCARSGAREGHHHHHH | soluble
14 | MSLSAPYRKQIISNAHNKPSLFSKIKTFFTQKDSARVSPRNNVANKQPRNESFNRRISSMPGGYFHSEISPDSTVNRSVVVSAVGEARNDIENKEEEYDETHETNISNAKLANFFSKKGNEPLSEIEIEGVMSLLQKSSKSMITSEGHHHHHH | soluble
15 | MKIVVAKNIGFCFGVERAIRTVEELLDEGKKVVTDGEIVHNKQVMEQLTKKGLKVSSEMTDGEVFVVRAHGIPKDRLEELKKIFPEVVDLTCPIVSQLFKTAQRYAKERKVIVFGKEDHPEMVALRGYAPAIVTKVPFKLEEKKVVFLSQTTSSLEEYKEFVAAMIRMNEFEEAVFLNTICPVTVNREREVEELSKICDLSIVVGGKHSSNTGKLFRIASKHSKTIWIESPDELPADVVKYGTVCVFSGTSTPNSLIENVVRKLKEMEGKRDGTI | soluble
